In patent publication US20150139990A1 (DAINIPPON SUMITOMO PHARMA, published 2015):

Columns and labels:
Assay in all cases: ELISA
[1] = target: T1, h175c human-chicken CD81 chimera (human; chicken, UniProt P60033 1-236)
T1 construct: as m30; not shown: C-terminal V5 and 6xHis tags
T1 chain: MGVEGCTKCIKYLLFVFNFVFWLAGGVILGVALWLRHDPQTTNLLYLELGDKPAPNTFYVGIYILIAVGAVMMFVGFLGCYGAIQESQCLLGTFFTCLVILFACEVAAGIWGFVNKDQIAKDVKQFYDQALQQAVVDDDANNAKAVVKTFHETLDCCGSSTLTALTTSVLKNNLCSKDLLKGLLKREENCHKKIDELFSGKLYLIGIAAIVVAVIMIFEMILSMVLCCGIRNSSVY
Description: (§1) To identify the epitopes to which each of the anti-human CD81 antibodies (002-A07 and 005-001) bind, ELISA assays were performed using human-chicken CD81 chimera constructs listed in Table 6. Each construct was transiently expressed in CHO cells and its cell membrane fraction was solubilized with detergents and immobilized onto a plate.
(§2) As control antibodies, human IgG4 antibody (Acris Antibodies GmbH) and mouse IgG antibody were used. Human-chicken chimera protein was captured via His tag introduced into the C-terminal by adding the membrane fraction (5 μg/100 μL/well) prepared (1) above to Ni NTA His Sorb plate (QIAGEN) in the presence of 1% (w/v) n-Octylglucoside and incubating for 3 hours at 4° C. After washing with TBST (TBS, 0.05% (v/v) Tween 20) three times, an anti-human CD81 antibody or a control antibody (50 μL/well) was added and incubated for 1 hour at room temperature (RT). After washing, 2000 fold-diluted HRP-labeled anti-human IgG4 antibody (Mouse anti-human IgG₄ HRP clone:HP6023 Beckman Coulter) or 1000 fold-diluted HRP-labeled anti-mouse IgG antibody (Invitrogen) (50 μL/well) were added. The plate was incubated for 1 hour at RT and washed with TBST three times. And then, peroxidase activity was determined by TMB One solution (Promega; Code 53025). The reaction was stopped with 2 M H₂SO₄ (50 μL) and absorbance at 450 nm was measured.

[2] = target: T2, h138c human-chicken CD81 chimera (human; chicken)
T2 construct: as m30; not shown: C-terminal V5 and 6xHis tags
T2 chain: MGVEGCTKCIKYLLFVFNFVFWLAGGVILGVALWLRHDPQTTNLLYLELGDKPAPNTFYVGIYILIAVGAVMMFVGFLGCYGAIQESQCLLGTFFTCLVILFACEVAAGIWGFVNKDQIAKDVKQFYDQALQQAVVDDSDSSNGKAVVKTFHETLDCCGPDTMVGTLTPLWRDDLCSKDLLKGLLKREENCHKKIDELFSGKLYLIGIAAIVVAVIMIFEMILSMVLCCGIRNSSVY
Description: as §1, §2

[3] = target: T3, c80h human-chicken CD81 chimera (chicken; human, UniProt P60033 1-236)
T3 construct: as m30; not shown: C-terminal V5 and 6xHis tags
T3 chain: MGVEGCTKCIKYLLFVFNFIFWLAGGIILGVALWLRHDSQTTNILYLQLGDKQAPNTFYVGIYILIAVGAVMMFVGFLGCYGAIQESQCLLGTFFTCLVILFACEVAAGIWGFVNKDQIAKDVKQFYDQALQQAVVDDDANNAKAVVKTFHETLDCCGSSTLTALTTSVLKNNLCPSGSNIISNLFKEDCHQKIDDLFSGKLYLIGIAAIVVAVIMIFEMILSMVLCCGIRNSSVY
Description: as §1, §2

[4] = target: T4, c138h human-chicken CD81 chimera (chicken; human, UniProt P60033 1-236)
T4 construct: as m30; not shown: C-terminal V5 and 6xHis tags
T4 chain: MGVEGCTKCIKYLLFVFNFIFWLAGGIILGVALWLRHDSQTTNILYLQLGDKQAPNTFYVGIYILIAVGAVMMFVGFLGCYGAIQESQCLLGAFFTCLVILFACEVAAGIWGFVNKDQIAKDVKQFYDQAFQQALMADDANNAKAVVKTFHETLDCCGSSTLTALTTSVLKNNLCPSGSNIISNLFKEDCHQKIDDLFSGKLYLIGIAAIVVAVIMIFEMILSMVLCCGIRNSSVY
Description: as §1, §2

[5] = target: T5, c175h human-chicken CD81 chimera (chicken; human)
T5 construct: as m30; not shown: C-terminal V5 and 6xHis tags
T5 chain: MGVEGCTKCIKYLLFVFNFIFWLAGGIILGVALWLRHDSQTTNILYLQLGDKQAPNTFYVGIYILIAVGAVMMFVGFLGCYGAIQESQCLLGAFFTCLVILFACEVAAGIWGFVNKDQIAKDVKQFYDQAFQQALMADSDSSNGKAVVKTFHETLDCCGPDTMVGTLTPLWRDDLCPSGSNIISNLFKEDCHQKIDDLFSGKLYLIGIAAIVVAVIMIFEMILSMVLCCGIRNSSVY
Description: as §1, §2

[6] = target: T6, h80c human-chicken CD81 chimera (human; chicken)
T6 construct: as m30; not shown: C-terminal V5 and 6xHis tags
T6 chain: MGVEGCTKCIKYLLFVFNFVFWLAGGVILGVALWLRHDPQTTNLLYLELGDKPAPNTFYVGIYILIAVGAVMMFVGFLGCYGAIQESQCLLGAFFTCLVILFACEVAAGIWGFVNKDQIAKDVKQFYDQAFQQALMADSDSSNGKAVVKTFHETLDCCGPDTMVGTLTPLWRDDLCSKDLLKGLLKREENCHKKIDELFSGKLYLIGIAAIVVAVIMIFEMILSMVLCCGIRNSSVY
Description: as §1, §2

[7] = target: T7, h156c human-chicken CD81 chimera (human; chicken)
T7 construct: as m30; not shown: C-terminal V5 and 6xHis tags
T7 chain: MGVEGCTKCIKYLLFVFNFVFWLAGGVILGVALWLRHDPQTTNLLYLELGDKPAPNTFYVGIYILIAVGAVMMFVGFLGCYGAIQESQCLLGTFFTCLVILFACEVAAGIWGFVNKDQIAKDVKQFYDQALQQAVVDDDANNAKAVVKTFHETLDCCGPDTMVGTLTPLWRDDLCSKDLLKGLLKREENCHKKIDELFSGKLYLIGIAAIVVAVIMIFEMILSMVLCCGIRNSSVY
Description: as §1, §2

[8] = target: T8, c156h human-chicken CD81 chimera (chicken; human, UniProt P60033 1-236)
T8 construct: as m30; not shown: C-terminal V5 and 6xHis tags
T8 chain: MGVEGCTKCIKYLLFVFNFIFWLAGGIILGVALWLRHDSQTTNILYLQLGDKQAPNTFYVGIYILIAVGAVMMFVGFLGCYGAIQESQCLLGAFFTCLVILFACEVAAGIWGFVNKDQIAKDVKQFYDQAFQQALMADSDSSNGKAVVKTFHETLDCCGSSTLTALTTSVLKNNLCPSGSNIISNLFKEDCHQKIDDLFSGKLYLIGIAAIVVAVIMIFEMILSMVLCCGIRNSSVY
Description: as §1, §2

B1: 002-A07 IgG4 antibody (antibody)
heavy: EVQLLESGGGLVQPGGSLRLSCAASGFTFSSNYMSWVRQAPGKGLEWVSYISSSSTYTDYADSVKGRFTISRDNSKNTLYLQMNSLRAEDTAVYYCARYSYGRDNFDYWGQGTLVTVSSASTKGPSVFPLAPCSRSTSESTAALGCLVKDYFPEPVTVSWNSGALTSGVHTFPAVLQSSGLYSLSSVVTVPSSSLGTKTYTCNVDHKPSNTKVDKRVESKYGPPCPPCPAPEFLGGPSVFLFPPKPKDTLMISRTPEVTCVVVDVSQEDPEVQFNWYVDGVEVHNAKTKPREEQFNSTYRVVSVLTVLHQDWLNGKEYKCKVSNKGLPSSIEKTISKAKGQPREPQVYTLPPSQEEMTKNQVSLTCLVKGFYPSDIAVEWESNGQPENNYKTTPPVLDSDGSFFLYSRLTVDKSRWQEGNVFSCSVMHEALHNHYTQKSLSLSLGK
light: QSVLTQPPSASGTPGQRVTISCTGSTSNIGAGYDTHWYQQLPGTAPKLLIYGNSNRPSGVPDRFSGSKSGTSASLAISGLRSEDEADYYCQSYDTNLSVWVFGGGTKLTVLGQPKAAPSVTLFPPSSEELQANKATLVCLISDFYPGAVTVAWKADSSPVKAGVETTTPSKQSNNKYAASSYLSLTPEQWKSHRSYSCQVTHEGSTVEKTVAPTECS
notes: human IgG4 S228P, lambda light chain
B1 was tested, and the binding result [1] was “binds”, the “absorbance at 450 nm relative to hCD81” value [2] was < 10% and the binding result [3] was “binds”. For the same binder, the “absorbance at 450 nm relative to hCD81” value [4] was < 10%, the “absorbance at 450 nm relative to hCD81” value [5] was < 10% and the “absorbance at 450 nm relative to hCD81” value [6] was < 10%. For the same binder, the “absorbance at 450 nm relative to hCD81” value [7] was < 10% and the “absorbance at 450 nm relative to hCD81” value [8] was < 10%.
